Data on 3 molecules can be found in patent publication US20180155451A1 (published 2018).

Holding throughout (assay): SPR (Biacore), antibody captured on chip, soluble FcgR as analyte; experiment 1
(SPR reads the build-up and loss of mass on a sensor chip optically.)

In test [1] the target is T1, FcγRIa extracellular domain with C-terminal His tag (human, UniProt P12314 16-292).
T1 construct: extracellular domain; also called FcgRI; FcgRIa; not shown: His tag at the C terminus
The procedure: (§1) Antibodies of interest were analyzed for the interaction to FcgR according to the method described in Reference Example 8.
(§2) Analysis of interaction between obj ective antibody and the FcγR was carried out using Biacore T100 (GE Healthcare), Biacore T200, Biacore A100, and Biacore 4000. HBS-EP+ (GE Healthcare) was used as the running buffer, and the measurement temperature was set to 25° C. Chips produced by immobilizing the antigen peptide by the amine coupling method to a Series S sensor Chip CM5 (GE Healthcare), chips produced by allowing preliminarily biotinylated antigen peptides to interact with and immobilize onto a Series S Sensor Chip SA (certified) (GE Healthcare), chips produced by immobilizing Protein L (ACTIGEN, BioVision) to Series S Sencor Chip CM5 (GE Healthcare), or chips produced by immobilizing Protein A/G (Thermo Scientific) to Series S Sencor Chip CM5 (GE Healthcare) were used. Antibodies of interest were captured onto these chips, and allowed to interact to each FcγR diluted with running buffer. To regenerate and repeatedly use the chip, the antibodies captured onto the chip were washed off by reacting 10 mM glycine-HCl, pH 1.5.

The target in test [2] is T2, FcγRIIa R type extracellular domain with C-terminal His tag (human, UniProt P12318 34-217).
T2 construct: extracellular domain; also called FcgRIIa R; FcgRIIaR; not shown: His tag at the C terminus
T2 sequence (looked up): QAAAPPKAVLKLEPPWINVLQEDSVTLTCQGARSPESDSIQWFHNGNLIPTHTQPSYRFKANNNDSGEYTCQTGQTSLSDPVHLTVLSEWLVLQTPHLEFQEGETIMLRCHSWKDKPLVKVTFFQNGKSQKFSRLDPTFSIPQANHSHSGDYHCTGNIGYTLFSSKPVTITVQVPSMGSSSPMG
How it is done:
as §1, §2

For test [3], the target named is T3, FcγRIIa H type extracellular domain with C-terminal His tag (human, UniProt P12318 34-217).
T3 construct: extracellular domain; also called FcgRIIa H; FcgRIIaH; not shown: His tag at the C terminus
T3 sequence (looked up): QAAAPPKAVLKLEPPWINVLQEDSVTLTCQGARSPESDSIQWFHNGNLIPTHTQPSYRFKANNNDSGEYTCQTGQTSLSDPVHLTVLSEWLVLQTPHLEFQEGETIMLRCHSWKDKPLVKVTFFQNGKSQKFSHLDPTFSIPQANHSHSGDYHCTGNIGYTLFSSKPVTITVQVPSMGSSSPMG
The procedure:
as §1, §2

The target in test [4] is T4, FcγRIIb extracellular domain with C-terminal His tag (human, UniProt P31994 43-217).
T4 construct: extracellular domain; also called FcgRIIb; 2b; not shown: His tag at the C terminus
T4 sequence (looked up): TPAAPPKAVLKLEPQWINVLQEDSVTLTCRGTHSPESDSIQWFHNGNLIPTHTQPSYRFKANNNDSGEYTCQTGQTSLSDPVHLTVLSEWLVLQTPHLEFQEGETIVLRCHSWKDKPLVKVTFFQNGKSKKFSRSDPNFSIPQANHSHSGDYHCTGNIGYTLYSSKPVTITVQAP
The procedure:
as §1, §2

Test [5] deals with T5, FcγRIIIa F type extracellular domain with C-terminal His tag (human, UniProt P08637 17-208).
T5 construct: extracellular domain; also called FcgRIIIa F; FcgRIIIaF; not shown: His tag at the C terminus
How it is done: as §1, §2

The target of test [6] is T6, FcγRIIIa V type extracellular domain with C-terminal His tag (human, UniProt P08637 17-208).
T6 construct: extracellular domain; also called FcgRIIIa V; FcgRIIIaV; not shown: His tag at the C terminus
The procedure: as §1, §2

T6 sequence (P08637 17-208 F176V): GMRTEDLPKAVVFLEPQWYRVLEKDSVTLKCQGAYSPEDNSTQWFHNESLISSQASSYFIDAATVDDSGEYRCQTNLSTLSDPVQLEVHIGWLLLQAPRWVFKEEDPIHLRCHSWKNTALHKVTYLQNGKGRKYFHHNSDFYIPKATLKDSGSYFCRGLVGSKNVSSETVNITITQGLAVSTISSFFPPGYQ
T1 sequence (P12314 16-292): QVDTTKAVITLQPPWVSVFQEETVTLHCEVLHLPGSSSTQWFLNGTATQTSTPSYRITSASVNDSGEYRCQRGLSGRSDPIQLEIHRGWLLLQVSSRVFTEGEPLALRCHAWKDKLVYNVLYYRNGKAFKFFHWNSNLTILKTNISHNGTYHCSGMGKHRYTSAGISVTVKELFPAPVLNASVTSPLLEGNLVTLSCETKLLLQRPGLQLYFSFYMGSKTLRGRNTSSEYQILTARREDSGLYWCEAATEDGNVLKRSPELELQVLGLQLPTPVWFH
T5 sequence (P08637 17-208): as the sequence (P08637 17-208 F176V) above, with V160F counted along it

B1: H240-FA012/H240-FB056/L73-k0 (antibody, human IgG1, kappa)
heavy 1: QDQLVQSGAEVKKPGASVKVSCKASGFNIKDTYIQWVRQAPGQGLEWMGRIDPLRKQTKYREKFEGRVTITADTSTNTAYMELSSLRSEDTAVYYCVRSGREFDYWGQGTLVTVSSASTKGPSVFPLAPSSKSTSGGTAALGCLVKDYFPEPVTVSWNSGALTSGVHTFPAVLQSSGLYSLSSVVTVPSSSLGTKTYICNVNHKPSNTKVDKKVEPKSCDKTHTCPPCPAPEYYWGPSVFLFPPKPKDTLMISRTPEVTCVVVDVSDEEPKVKFNWYVDGVEVHNAKTKPREEQYNATYRVVSVLTVLHQDWLNGKEYKCKVSNKALPAPIEKTISKAKGQPREPQVYTLPPSRKEMTKNQVSLTCLVKGFYPSDIAVEWESNGQPENNYKTTPPVLDSDGSFFLYSKLTVDKSRWQQGNVFSCSVMHEALHNRYTQKSLSLSP
heavy 2: QDQLVQSGAEVKKPGASVKVSCKASGFNIKDTYIQWVRQAPGQGLEWMGRIDPLRKQTKYREKFEGRVTITADTSTNTAYMELSSLRSEDTAVYYCVRSGREFDYWGQGTLVTVSSASTKGPSVFPLAPSSKSTSEGTAALGCLVEDYFPEPVTVSWNSGALTSGVHTFPAVLQSSGLYSLSSVVTVPSSSLGTQTYICNVDHKPSNTKVDKKVEPKSCDKTHTCPPCPAPELLGGPSVFLFPPKPKDTLMISRTPEVTCVVVDVSHEEPEVQFNWYVDGVEVHNAETKPREEQYNSTYRVVSVLTVLHQDWLNGKEYKCKVSNDALPMPIEETISKAKGQPREPQVYTLPPSREEMTKNQVSLTCLVKGFYPSDIAVEWESNGQPENNYKTTPPVLDSDGSFFLYSKLTVDKSRWQQGNVFSCSVMHEALHNHYTQESLSLSP
light: DIQMTQSPSSLSASVGDRVTITCRASQDIHKYIAWYQQKPGQAPRLLIQYTSTLQPGVPSRFSGSGSGTDYTFTISSLQPEDIATYYCLQYEQLRTFGGGTKVEIKRTVAAPSVFIFPPSDEQLKSGTASVVCLLNNFYPREAKVQWKVDNALQSGNSQESVTEQDSKDSTYSLSSTLTLSKADYEKHKVYACEVTHQGLSSPVTKSFNRGEC
notes: Heterodimerized anti-EREG IgG1 antibody; A chain altered from H240-AK072, B chain altered from H240-BH076
The term Kd denotes the constant that tells how readily two partners part at equilibrium. Low readings indicate higher affinity, high ones lower affinity. B1: the Kd in test [1] was found to be 0.1 nM; in test [2], 280 nM; in test [3], 86 nM; in test [4] it was 1400 nM; in test [5] it was 5 nM; in test [6], 1.3 nM.

B2: H240-FA024/H240-FB064/L73-k0 (antibody, human IgG1, kappa)
heavy 1: QDQLVQSGAEVKKPGASVKVSCKASGFNIKDTYIQWVRQAPGQGLEWMGRIDPLRKQTKYREKFEGRVTITADTSTNTAYMELSSLRSEDTAVYYCVRSGREFDYWGQGTLVTVSSASTKGPSVFPLAPSSKSTSGGTAALGCLVKDYFPEPVTVSWNSGALTSGVHTFPAVLQSSGLYSLSSVVTVPSSSLGTKTYTCNVNHKPSNTKVDKKVEPKSCDKTHTCPPCPAPEYYWGPSVFLFPPKPKDTLMISRTPEVTCVVVDVSDEEPKVKFNWYVDGVEVHNAKTKPREEQYNATYRVVSVLTVLHQDWLNGKEYKCKVSNKALPAPIEKTISKAKGQPREPQVYTLPPSRKEKTKNQVSLTCLVKGFYPSDIAVEWESNGQPENNYKTTPPVLDSDGSFFLYSKLTVDKSRWQQGNVFSCSVMHEALHNRYTQKSLSLSP
heavy 2: QDQLVQSGAEVKKPGASVKVSCKASGFNIKDTYIQWVRQAPGQGLEWMGRIDPLRKQTKYREKFEGRVTITADTSTNTAYMELSSLRSEDTAVYYCVRSGREFDYWGQGTLVTVSSASTKGPSVFPLAPSSKSTSESTAALGCLVKDYFPEPVTVSWNSGALTSGVHTFPAVLQSSGLYSLSSVVTVPSSNFGTQTYTCNVDHKPSNTKVDKTVEPKSCDKTHTCPPCPAPELLGGPSVFLFPPKPKDTLMISRTPEVTCVVVDVSHEEPEVQFNWYVDGVEVHNAKTKPREEQYNSTYRVVSVLTVLHQDWLNGKEYKCKVSNDALPMPIEETISKAKGQPREPQVYTLPPSREEMTKNQVSLTCLVKGFYPSDIAVEWESNGQPENNYKTTPPVLDSDGSFFLYSKLTVDKSRWQQGNVFSCSVMHEALHNHYTQESLSLSP
light: DIQMTQSPSSLSASVGDRVTITCRASQDIHKYIAWYQQKPGQAPRLLIQYTSTLQPGVPSRFSGSGSGTDYTFTISSLQPEDIATYYCLQYEQLRTFGGGTKVEIKRTVAAPSVFIFPPSDEQLKSGTASVVCLLNNFYPREAKVQWKVDNALQSGNSQESVTEQDSKDSTYSLSSTLTLSKADYEKHKVYACEVTHQGLSSPVTKSFNRGEC
notes: as for B1
Regarding B2, the Kd in test [1] amounted to 0.095 nM; in test [2], 330 nM; in test [3], 110 nM; in test [4] it was 1900 nM; in test [5], 4.7 nM; in test [6], 1.3 nM.

B3: H240-FA024/H240-FB059/L73-k0 (antibody, human IgG1, kappa)
heavy 1: QDQLVQSGAEVKKPGASVKVSCKASGFNIKDTYIQWVRQAPGQGLEWMGRIDPLRKQTKYREKFEGRVTITADTSTNTAYMELSSLRSEDTAVYYCVRSGREFDYWGQGTLVTVSSASTKGPSVFPLAPSSKSTSGGTAALGCLVKDYFPEPVTVSWNSGALTSGVHTFPAVLQSSGLYSLSSVVTVPSSSLGTKTYTCNVNHKPSNTKVDKKVEPKSCDKTHTCPPCPAPEYYWGPSVFLFPPKPKDTLMISRTPEVTCVVVDVSDEEPKVKFNWYVDGVEVHNAKTKPREEQYNATYRVVSVLTVLHQDWLNGKEYKCKVSNKALPAPIEKTISKAKGQPREPQVYTLPPSRKEKTKNQVSLTCLVKGFYPSDIAVEWESNGQPENNYKTTPPVLDSDGSFFLYSKLTVDKSRWQQGNVFSCSVMHEALHNRYTQKSLSLSP
heavy 2: QDQLVQSGAEVKKPGASVKVSCKASGFNIKDTYIQWVRQAPGQGLEWMGRIDPLRKQTKYREKFEGRVTITADTSTNTAYMELSSLRSEDTAVYYCVRSGREFDYWGQGTLVTVSSASTKGPSVFPLAPSSKSTSGETAALGCLVEDYFPEPVTVSWNSGALTSGVHTFPAVLQSSGLYSLSSVVTVPSSSLGTQTYICNVNHKPSNTKVDKKVEPKSCDKTHTCPPCPAPELLGGPSVFLFPPKPKDTLMISRTPEVTCVVVDVSHEEPEVQFNWYVDGVEVHNAETKPREEQYNSTYRVVSVLTVLHQDWLNGKEYKCKVSNDALPMPIEETISKAKGQPREPQVYTLPPSREEMTKNQVSLTCLVKGFYPSDIAVEWESNGQPENNYKTTPPVLDSDGSFFLYSKLTVDKSRWQQGNVFSCSVMHEALHNHYTQESLSLSP
light: DIQMTQSPSSLSASVGDRVTITCRASQDIHKYIAWYQQKPGQAPRLLIQYTSTLQPGVPSRFSGSGSGTDYTFTISSLQPEDIATYYCLQYEQLRTFGGGTKVEIKRTVAAPSVFIFPPSDEQLKSGTASVVCLLNNFYPREAKVQWKVDNALQSGNSQESVTEQDSKDSTYSLSSTLTLSKADYEKHKVYACEVTHQGLSSPVTKSFNRGEC
notes: as for B1
As for B3, the Kd in test [1] is 0.089 nM; in test [2], 290 nM; in test [3], 93 nM; in test [4], 1600 nM; in test [5] it was 4.4 nM; in test [6], 1.3 nM.
